Measured values taken from the supplement of paper PMC5998384.

Tests used:
[1] = system: HeLa Kyoto; experiment: melting temperature (median over replicates), in situ; higher = more thermally stable
[2] = system: HeLa Kyoto; experiment: solubility in G1/S (NP-40 vs SDS abundance) (log2 ratio); higher = more soluble; details: cell cycle stage: G1/S
[3] = system: HeLa Kyoto; experiment: solubility change mitosis vs G1/S (difference of NP-40 vs SDS log2 ratios) (log2 ratio difference); higher = more soluble in mitosis
[4] = system: HeLa Kyoto; experiment: thermal stability score vs G1/S (z-score of summed log2 fold changes over temperatures); higher = more thermally stable than in G1/S
[5] = cell cycle stage: early G1 (4.5 h after nocodazole release)
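Wherever melting temperature (median over replicates), in situ is given: HeLa Kyoto cells synchronized by double thymidine or nocodazole block, proteins quantified by TMT10plex mass spectrometry, three independent biological replicates.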
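Wherever solubility change mitosis vs G1/S (difference of NP-40 vs SDS log2 ratios) is given: synchronized HeLa Kyoto cells (double thymidine block for G1/S, nocodazole release for mitosis), protein amounts in NP-40 versus SDS lysates quantified by mass spectrometry, three biological replicates.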
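Wherever solubility in G1/S (NP-40 vs SDS abundance) is given: HeLa Kyoto cells arrested at G1/S by double thymidine block, proteins quantified by TMT10plex mass spectrometry in mild NP-40 versus SDS extracts, three biological replicates.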
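Wherever thermal stability score vs G1/S (z-score of summed log2 fold changes over temperatures) is given: synchronized HeLa Kyoto cells, proteins quantified by TMT10plex mass spectrometry, three biological replicates, mitosis taken 0.5 h after nocodazole release, G1/S directly after double thymidine block.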

| Sequence | melting temperature ([1]; cell cycle stage: G1/S) | melting temperature ([1]; cell cycle stage: mitosis) | solubility in G1/S (log2) [2] | solubility change mitosis (log2) [3] | thermal stability score [4, 5] | thermal stability score ([4]; cell cycle stage: mitosis) |
| --- | --- | --- | --- | --- | --- | --- |
| MADMQNLVERLERAVGRLEAVSHTSDMHRGYADSPSKAGAAPYVQAFDSLLAGPVAEYLKISKEIGGDVQKHAEMVHTGLKLERALLVTASQCQQPAENKLSDLLAPISEQIKEVITFREKNRGSKLFNHLSAVSESIQALGWVAMAPKPGPYVKEMNDAAMFYTNRVLKEYKDVDKKHVDWVKAYLSIWTELQAYIKEFHTTGLAWSKTGPVAKELSGLPSGPSAGSCPPPPPPCPPPPPVSTISCSYESASRSSLFAQINQGESITHALKHVSDDMKTHKNPALKAQSGPVRSGPKPFSAPKPQTSPSPKRATKKEPAVLELEGKKWRVENQENVSNLVIEDTELKQVAYIYKCVNTTLQIKGKINSITVDNCKKLGLVFDDVVGIVEIINSKDVKVQVMGKVPTISINKTDGCHAYLSKNSLDCEIVSAKSSEMNVLIPTEGGDFNEFPVPEQFKTLWNGQKLVTTVTEIAG [CAP1] | 53.6 °C | 53.2 °C | 0.178 | 0.000121 | -0.637 | -0.459 |
| MADQLYLENIDEFVTDQNKIVTYKWLSYTLGVHVNQAKQMLYDYVERKRKENSGAQLHVTYLVSGSLIQNGHSCHKVAVVREDKLEAVKSKLAVTASIHVYSIQKAMLKDSGPLFNTDYDILKSNLQNCSKFSAIQCAAAVPRAPAESSSSSKKFEQSHLHMSSETQANNELTTNGHGPPASKQVSQQPKGIMGMFASKAAAKTQETNKETKTEAKEVTNASAAGNKAPGKGNMMSNFFGKAAMNKFKVNLDSEQAVKEEKIVEQPTVSVTEPKLATPAGLKKSSKKAEPVKVLQKEKKRGKRVALSDDETKETENMRKKRRRIKLPESDSSEDEVFPDSPGAYEAESPSPPPPPSPPLEPVPKTEPEPPSVKSSSGENKRKRKRVLKSKTYLDGEGCIVTEKVYESESCTDSEEELNMKTSSVHRPPAMTVKKEPREERKGPKKGTAALGKANRQVSITGFFQRK [POLD3] | 47 °C | 48.1 °C | 0.0553 | -0.0027 | 0.776 | 2.8 |
| MADSRDPASDQMQHWKEQRAAQKADVLTTGAGNPVGDKLNVITVGPRGPLLVQDVVFTDEMAHFDRERIPERVVHAKGAGAFGYFEVTHDITKYSKAKVFEHIGKKTPIAVRFSTVAGESGSADTVRDPRGFAVKFYTEDGNWDLVGNNTPIFFIRDPILFPSFIHSQKRNPQTHLKDPDMVWDFWSLRPESLHQVSFLFSDRGIPDGHRHMNGYGSHTFKLVNANGEAVYCKFHYKTDQGIKNLSVEDAARLSQEDPDYGIRDLFNAIATGKYPSWTFYIQVMTFNQAETFPFNPFDLTKVWPHKDYPLIPVGKLVLNRNPVNYFAEVEQIAFDPSNMPPGIEASPDKMLQGRLFAYPDTHRHRLGPNYLHIPVNCPYRARVANYQRDGPMCMQDNQGGAPNYYPNSFGAPEQQPSALEHSIQYSGEVRRFNTANDDNVTQVRAFYVNVLNEEQRKRLCENIAGHLKDAQIFIQKKAVKNFTEVHPDYGSHIQALLDKYNAEKPKNAIHTFVQSGSHLAAREKANL [CAT] | 58.2 °C | 57.9 °C | 0.174 | -0.000938 | -2.19 | -2.27 |
| MADSSGQQGKGRRVQPQWSPPAGTQPCRLHLYNSLTRNKEVFIPQDGKKVTWYCCGPTVYDASHMGHARSYISFDILRRVLKDYFKFDVFYCMNITDIDDKIIKRARQNHLFEQYREKRPEAAQLLEDVQAALKPFSVKLNETTDPDKKQMLERIQHAVQLATEPLEKAVQSRLTGEEVNSCVEVLLEEAKDLLSDWLDSTLGCDVTDNSIFSKLPKFWEGDFHRDMEALNVLPPDVLTRVSEYVPEIVNFVQKIVDNGYGYVSNGSVYFDTAKFASSEKHSYGKLVPEAVGDQKALQEGEGDLSISADRLSEKRSPNDFALWKASKPGEPSWPCPWGKGRPGWHIECSAMAGTLLGASMDIHGGGFDLRFPHHDNELAQSEAYFENDCWVRYFLHTGHLTIAGCKMSKSLKNFITIKDALKKHSARQLRLAFLMHSWKDTLDYSSNTMESALQYEKFLNEFFLNVKDILRAPVDITGQFEKWGEEEAELNKNFYDKKTAIHKALCDNVDTRTVMEEMRALVSQCNLYMAARKAVRKRPNQALLENIALYLTHMLKIFGAVEEDSSLGFPVGGPGTSLSLEATVMPYLQVLSEFREGVRKIAREQKVPEILQLSDALRDNILPELGVRFEDHEGLPTVVKLVDRNTLLKEREEKRRVEEEKRKKKEEAARRKQEQEAAKLAKMKIPPSEMFLSETDKYSKFDENGLPTHDMEGKELSKGQAKKLKKLFEAQEKLYKEYLQMAQNGSFQ [CARS] | 52.9 °C | 52.6 °C | 0.0728 | -0.103 | 0.401 | -0.0333 |
| MADTTPNGPQGAGAVQFMMTNKLDTAMWLSRLFTVYCSALFVLPLLGLHEAASFYQRALLANALTSALRLHQRLPHFQLSRAFLAQALLEDSCHYLLYSLIFVNSYPVTMSIFPVLLFSLLHAATYTKKVLDARGSNSLPLLRSVLDKLSANQQNILKFIACNEIFLMPATVFMLFSGQGSLLQPFIYYRFLTLRYSSRRNPYCRTLFNELRIVVEHIIMKPACPLFVRRLCLQSIAFISRLAPTVP [TMEM33] | 55 °C | 53.5 °C | 0.0522 | -0.177 | 2.25 | 2.45 |
| MAEAHQAVAFQFTVTPDGIDLRLSHEALRQIYLSGLHSWKKKFIRFKNGIITGVYPASPSSWLIVVVGVMTTMYAKIDPSLGIIAKINRTLETANCMSSQTKNVVSGVLFGTGLWVALIVTMRYSLKVLLSYHGWMFTEHGKMSRATKIWMGMVKIFSGRKPMLYSFQTSLPRLPVPAVKDTVNRYLQSVRPLMKEEDFKRMTALAQDFAVGLGPRLQWYLKLKSWWATNYVSDWWEEYIYLRGRGPLMVNSNYYAMDLLYILPTHIQAARAGNAIHAILLYRRKLDREEIKPIRLLGSTIPLCSAQWERMFNTSRIPGEETDTIQHMRDSKHIVVYHRGRYFKVWLYHDGRLLKPREMEQQMQRILDNTSEPQPGEARLAALTAGDRVPWARCRQAYFGRGKNKQSLDAVEKAAFFVTLDETEEGYRSEDPDTSMDSYAKSLLHGRCYDRWFDKSFTFVVFKNGKMGLNAEHSWADAPIVAHLWEYVMSIDSLQLGYAEDGHCKGDINPNIPYPTRLQWDIPGECQEVIETSLNTANLLANDVDFHSFPFVAFGKGIIKKCRTSPDAFVQLALQLAHYKDMGKFCLTYEASMTRLFREGRTETVRSCTTESCDFVRAMVDPAQTVEQRLKLFKLASEKHQHMYRLAMTGSGIDRHLFCLYVVSKYLAVESPFLKEVLSEPWRLSTSQTPQQQVELFDLENNPEYVSSGGGFGPVADDGYGVSYILVGENLINFHISSKFSCPETDSHRFGRHLKEAMTDIITLFGLSSNSKK [CPT1A] | 50 °C | 50.1 °C | -0.177 | -0.0899 | 5.3 | 4.57 |
| MAEAPPVSGTFKFNTDAAEFIPQEKKNSGLNCGTQRRLDSNRIGRRNYSSPPPCHLSRQVPYDEISAVHQHSYHPSGSKPKSQQTSFQSSPCNKSPKSHGLQNQPWQKLRNEKHHIRVKKAQSLAEQTSDTAGLESSTRSESGTDLREHSPSESEKEVVGADPRGAKPKKATQFVYSYGRGPKVKGKLKCEWSNRTTPKPEDAGPESTKPVGVFHPDSSEASSRKGVLDGYGARRNEQRRYPQKRPPWEVEGARPRPGRNPPKQEGHRHTNAGHRNNMGPIPKDDLNERPAKSTCDSENLAVINKSSRRVDQEKCTVRRQDPQVVSPFSRGKQNHVLKNVETHTGSLIEQLTTEKYECMVCCELVRVTAPVWSCQSCYHVFHLNCIKKWARSPASQADGQSGWRCPACQNVSAHVPNTYTCFCGKVKNPEWSRNEIPHSCGEVCRKKQPGQDCPHSCNLLCHPGPCPPCPAFMTKTCECGRTRHTVRCGQAVSVHCSNPCENILNCGQHQCAELCHGGQCQPCQIILNQVCYCGSTSRDVLCGTDVGKSDGFGDFSCLKICGKDLKCGNHTCSQVCHPQPCQQCPRLPQLVRCCPCGQTPLSQLLELGSSSRKTCMDPVPSCGKVCGKPLPCGSLDFIHTCEKLCHEGDCGPCSRTSVISCRCSFRTKELPCTSLKSEDATFMCDKRCNKKRLCGRHKCNEICCVDKEHKCPLICGRKLRCGLHRCEEPCHRGNCQTCWQASFDELTCHCGASVIYPPVPCGTRPPECTQTCARVHECDHPVYHSCHSEEKCPPCTFLTQKWCMGKHEFRSNIPCHLVDISCGLPCSATLPCGMHKCQRLCHKGECLVDEPCKQPCTTPRADCGHPCMAPCHTSSPCPVTACKAKVELQCECGRRKEMVICSEASSTYQRIAAISMASKITDMQLGGSVEISKLITKKEVHQARLECDEECSALERKKRLAEAFHISEDSDPFNIRSSGSKFSDSLKEDARKDLKFVSDVEKEMETLVEAVNKGKNSKKSHSFPPMNRDHRRIIHDLAQVYGLESVSYDSEPKRNVVVTAIRGKSVCPPTTLTGVLEREMQARPPPPIPHHRHQSDKNPGSSNLQKITKEPIIDYFDVQD [NFX1] | 50.5 °C | 50.3 °C | -0.786 | 0.35 | 1.02 | 0.0215 |
